# Biological target: 4×SUMO2 linear fusion (C47A) with a single C-terminal cysteine labelled with Alexa488
# Test: fluorescence polarisation; unlabelled RNF4 titrated against 1 µM 4×SUMO-Alexa488; 50 mM Tris, 150 mM NaCl, 0.5 mM TCEP, pH 7.5; room temperature, 10 min before measuring FP
substance,measurement,value
"RNF4 ∆Basic, full-length (basic charge removed from the arginine-rich motif) (from UniProt O88846 1-194) (enzyme)",Kd,2600 nM

# Reference: paper PMC7393505
